Measured values as given in US20120237496.
Substitutions are numbered along the chain they refer to.

T1: Peptide-5 (not fully specified)
T1 chain: CDRVYIHPFHLK

T2: Peptide-6a
T2 chain: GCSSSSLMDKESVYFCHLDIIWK

T3: Peptide-6b
T3 chain: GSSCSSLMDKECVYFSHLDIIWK

T4: Peptide-8 (not fully specified)
T4 chain: CQLYENKPRRPYILK

T5: Peptide-13 (not fully specified)
T5 chain: CRPPGFSPFRK

T6: Peptide-3
T6 chain: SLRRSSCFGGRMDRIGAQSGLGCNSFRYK

B1: C1 (protein)
chain: YPYDVPDYAYPYDVPDYAYPYDVPDYAGSYDDGICKSSDCIKSAARLIQNMDATTEPCTDFFKYACGGWLKRNVIPETSSRYGNFDILRDELEVVLKDVLQEPKTEDIVAVQKAKALYRSCINESAIDSRGGEPLLKLLPDIYGWPVATENWEQKYGASWTAEKAIAQLNSKYGKKVLINLFVGTDDKNSVNHVIHIDQPRLGLPSRDYYECTGIYKEACTAYVDFMISVARLIRQEERLPIDENQLALEMNKVMELEKEIANATAKPEDRNDPMLLYNKMTLAQIQNNFSLEINGKPFSWLNFTNEIMSTVNISITNEEDVVVYAPEYLTKLKPILTKYSARDLQNLMSWRFIMDLVSSLSRTYKESRNAFRKALYVTTSETATWRRCANYVNGNMMNAVGRLYVEAAFAGESKHVVEDLIAQIREVFIQTLDDLTWMDAETKKRAEEKALAIKERIGYPDDIVSNDNKLNNEYLELNYKEDEYFENIIQNLKFSQSKQLKKLREKVDKDEWISGAAVVNAFYSSGRNQIVFPAGILQPPFFSAQQSNSLNYGGIGMVIGHEITHGFDDNGRNFNKDGDLVDWWTQQSASNFKEQSQCMVYQYGNFSWDLAGGQHLNGINTLGENIADNGGLGQAYRAYQNYIKKNGEEKLLPGLDLNHKQLFFLNFAQVWCGTYRPEYAVNSIKTVVHSPKNFRIIGTLQNSAEFSEAFHCRKNSYMNPEKKCRVW
B2: C10 (protein)
chain: B1 chain with S206R, F226L, D569M, G572V, F575P, G579D, V688D
B3: D5 (protein)
chain: B1 chain with A266S, D356G, D569F, F575P, G579D, G624Q, V688D
B4: D3 (protein)
chain: B1 chain with D569F, F575P, G579D, G624Q, V688D
B5: C8 (protein)
chain: B1 chain with S206R, R207G, M398E, D569F, G579W, V688D
B6: C3 (protein)
chain: B1 chain with S206R, R207G, F226L, M398E, D569F, F575P, G579D, V688D
B7: C2 (protein)
chain: B1 chain with S206R, R207G, F226L, D569F, F575P, G579D, V688D
B8: C11 (protein)
chain: B1 chain with S206R, F226L, D569M, F575P, G579W, V688D
B9: D6 (protein)
chain: B1 chain with S206R, F226L, A266S, D569M, G572V, F575P, G579D, V688D
B10: C7 (protein)
chain: B1 chain with S206R, R207G, M398E, D569F, G572V, G579L, V688D
B11: C5 (protein)
chain: B1 chain with S206R, R207G, D569F, F575P, G579D, V688D
B12: C4 (protein)
chain: B1 chain with S206R, R207G, D569F, G572V, G579V, V688D
B13: D4 (protein)
chain: B1 chain with A266S, D356G, D569F, F575P, G579D, V688D
B14: C6 (protein)
chain: B1 chain with S206R, R207G, D569M, G572V, G579V, V688D
B15: D9 (protein)
chain: B1 chain with S206R, F226L, A266S, D356G, D569M, G572V, F575P, G579D, V688D
B16: D7 (protein)
chain: B1 chain with S206R, F226L, D356G, D569M, G572V, F575P, G579D, V688D
B17: D10 (protein)
chain: B1 chain with S206R, F226L, A266S, D356G, D569M, G572V, F575P, G579D, G624Q, V688D
B18: C9 (protein)
chain: B1 chain with S206R, R207G, M398E, D569M, G572V, G579L, V688D
B19: D8 (protein)
chain: B1 chain with S206R, F226L, D569M, G572V, F575P, G579D, G624Q, V688D

Target: T1, Peptide-5

Protein	activity relative to G399V/G714K (B1) [fold]	kapp ratio vs G399V/G714K (B1) [fold]
B1	0.86	1.02
B2	0.08	0.17
B3	0.08	
B4	0.1	
B5		0.27
B6		0.15
B7		0.19
B8		0.19
B9	0.08	
B10		0.34
B11		0.22
B12		0.27
B13	0.08	
B14		0.29
B15	0.08	
B16	0.09	
B17	0.08	
B18		0.22
B19	0.09	

Target: T2, Peptide-6a

Protein	activity relative to G399V/G714K (B1) [fold]	kapp ratio vs G399V/G714K (B1) [fold]
B1	0.76	0.97
B2	0.28	0.27
B3	0.35	
B4	0.47	
B5		0.32
B6		0.18
B7		0.14
B8		0.28
B9	0.35	
B10		0.42
B11		0.23
B12		0.37
B13	0.28	
B14		0.28
B15	0.06	
B16	0.13	
B17	0.08	
B18		0.31
B19	0.44	

Target: T3, Peptide-6b

Protein	kapp ratio vs G399V/G714K (B1) [fold]
B1	0.76
B2	0.19
B5	0.24
B6	0.09
B7	0.1
B8	0.11
B10	0.28
B11	0.18
B12	0.29
B14	0.19
B18	0.21

Target: Peptide-1

Protein	activity relative to G399V/G714K (B1) [fold]	kapp ratio vs G399V/G714K (B1) [fold]
B1	1.14	1.28
B2	2.05	2.35
B3	2.94	
B4	3.11	
B5		1.86
B6		0.86
B7		1.06
B8		2.19
B9	2.24	
B10		2.77
B11		1.95
B12		2.41
B13	2.43	
B14		2.35
B15	1.07	
B16	0.88	
B17	1.33	
B18		2.33
B19	2.58	

Target: T4, Peptide-8

Protein	kapp ratio vs G399V/G714K (B1) [fold]
B1	0.62
B2	0.34
B5	0.36
B6	0.37
B7	0.34
B8	0.35
B10	0.46
B11	0.41
B12	0.4
B14	0.37
B18	0.46

Target: Peptide-2

Protein	activity relative to G399V/G714K (B1) [fold]	kapp ratio vs G399V/G714K (B1) [fold]
B1	1.12	1.23
B2	2.39	2.6
B3	3.37	
B4	3.42	
B5		1.64
B6		0.81
B7		0.88
B8		2.14
B9	2.37	
B10		2.83
B11		1.92
B12		2.43
B13	2.71	
B14		2.36
B15	1.11	
B16	1.18	
B17	1.26	
B18		2.44
B19	2.66	

Target: Peptide-7

Protein	activity relative to G399V/G714K (B1) [fold]	kapp ratio vs G399V/G714K (B1) [fold]
B1	0.96	0.9
B2	0.68	0.49
B3	0.9	
B4	0.95	
B5		0.69
B6		0.64
B7		0.47
B8		0.66
B9	0.68	
B10		0.47
B11		0.72
B12		0.44
B13	0.51	
B14		0.61
B15	0.43	
B16	0.66	
B17	0.33	
B18		0.52
B19	0.82	

Target: Peptide-4

Protein	activity relative to G399V/G714K (B1) [fold]	kapp ratio vs G399V/G714K (B1) [fold]
B1	1.1	0.51
B2	0.83	0.8
B3	0.9	
B4	1.04	
B5		1.17
B6		0.79
B7		0.72
B8		0.49
B9	0.89	
B10		0.96
B11		0.74
B12		0.44
B13	0.91	
B14		1.26
B15	0.86	
B16	0.91	
B17	0.84	
B18		0.67
B19	0.95	

Target: T5, Peptide-13

Protein	kapp ratio vs G399V/G714K (B1) [fold]
B1	0.52
B2	0.68
B5	0.43
B6	0.85
B7	0.68
B8	0.61
B10	0.43
B11	0.63
B12	0.62
B14	0.85
B18	0.52

Target: T6, Peptide-3

Protein	kapp ratio vs G399V/G714K (B1) [fold]
B1	0.36
B2	0.24
B5	0.24
B6	0.24
B7	0.24
B8	0.24
B10	0.24
B11	0.24
B12	0.24
B14	0.24
B18	0.24
